Results reported in US20210348149A1 (Alexion, published 2021).

Target: T1, r-Antidote (two-chain polypeptide, SEQ ID NO: 3); processed product of the precursor SEQ ID NO: 2 after … (human, UniProt P00742 80-179); P00742 235-488, in certain production batches: glycosylation at Thr249; in certain production batches: glycosylation at Ser56, Ser72, Ser76 and Thr82; (3R)-3-hydroxyAsp at Asp29)
T1 construct: Light and heavy chain are joined by a disulfide bond, Cys98 of the light chain to Cys108 of the heavy chain; also called fXa antidote; fXa derivative
Assay: affinity chromatography with immobilised STI ligand (Example 2)
Procedure: An affinity chromatograph was developed for high-volume extraction of the antidote. The affinity ligand included Kunitz trypsin inhibitor (21 kDa; pI=4.5) extracted from whole soybean or flour. The soybean trypsin inhibitor (STI) forms 1:1 complex with the antidote. A non-competitive inhibitor elution condition was identified for scalability and compatibility, which included 25 mM Na-acetate, 1M Arginine, at pH 5.2.
Affinity column chromatography was performed using Capto STI resin at ambient temperature. During the load phase, the product bound to the resin while contaminants flew through. The product was recovered by disrupting protein interactions with a high concentration of arginine in the elution buffer. Prior to use, the column was rinsed with water for injection (WFI), cleaned with 100 mM Phosphoric Acid pH 3.0, and rinsed with WFI. The column was initially pre-equilibrated with pre-equilibration buffer (20 mM Tris-HCl, pH 7.4), then equilibrated with equilibration buffer (20 mM Tris-HCl, 200 mM NaCl, pH 7.4), and once the pH and conductivity of the column were within specification, it was loaded with Triton-X 100 treated clarified harvest (HCCF). Each cycle of HCCF material was transferred from its viral inactivation hold tank directly to the column.

T1 sequence (P00742 other isoform, or with tags, fused parts or gaps limits assumed, chain 1 of 2): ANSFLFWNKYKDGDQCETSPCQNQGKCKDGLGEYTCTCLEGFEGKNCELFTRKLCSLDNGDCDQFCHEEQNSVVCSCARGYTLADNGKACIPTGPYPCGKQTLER
T1 sequence (P00742 235-488 S419A limits assumed, chain 2 of 2): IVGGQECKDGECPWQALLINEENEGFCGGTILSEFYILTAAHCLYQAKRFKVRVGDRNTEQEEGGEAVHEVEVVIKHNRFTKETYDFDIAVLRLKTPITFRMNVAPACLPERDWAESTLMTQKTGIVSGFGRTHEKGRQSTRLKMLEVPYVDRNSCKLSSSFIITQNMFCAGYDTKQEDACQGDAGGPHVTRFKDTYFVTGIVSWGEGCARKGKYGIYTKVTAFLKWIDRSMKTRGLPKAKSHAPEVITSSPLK

B1: soybean trypsin inhibitor (STI), Kunitz trypsin inhibitor (21 kDa; pI=4.5) extracted from whole soybean or flour (other, soybean (Glycine max), UniProt P01070 25-205, looked up)
chain: DFVLDNEGNPLENGGTYYILSDITAFGGIRAAPTGNERCPLTVVQSRNELDKGIGTIISSPYRIRFIAEGHPLSLKFDSFAVIMLCVGIPTEWSVVEDLPEGPAVKIGENKDAMDGWFRLERVSDDEFNNYKLVFCPQQAEDDKCGDIGISIDHDDGTRRLVVSKNKPLVVQFQKLDKESL
notes: also called STI ligand
- binding result: binds
